According to US20080253996A1, “Use of Sdf-1 for the Treatment and/or Prevention of Neurological Diseases” (LABORATORIES SERONO SA, priority 2005, published 2008):

B1: SDF-1α variant: Triple mutant of SDF-1α (Lys24Ala, His25Ala, Lys27Ala), SEQ ID NO: 4, reduced GAG binding activity (protein)
chain: KPVSLSYRCPCRFFESHVARANVAALAILNTPNCALQIVARLKNNNRQVCIDPKLKWIQEYLEKALNK
modifications: Human
B2: IL-10: control molecule shown to inhibit cytokine release from activated microglia (protein, UniProt P18893 19-178, looked up)
Interleukin-10: SRGQYSREDNNCTHFPVGQSHMLLELRTAFSQVKTFFQTKDQLDNILLTDSLMQDFKGYLGCQALSEMIQFYLVEVMPQAEKHGPEIKEHLNSLGEKLKTLRMRLRRCHRFLPCENKSKAVEQVKSDFNKLQDQGVYKAMNEFDIFINCIEAYMMIKMKS

Key:
sciatic nerve crush mice = assay: Neuropathy induced by sciatic nerve crush, electrophysiological recording (CMAP); type: in vivo, mouse
Method: […] 8 week-old females C57bl/6 RJ mice (Elevage Janvier, Le Genest-St-Isle, France) were used. They were divided into 6 groups (n=6): • (a) nerve crush/Vehicle (Saline/0.02% BSA); • (b) nerve crush/SDF-1α (3 μg/kg); • (c) nerve crush/SDF-1α (10 μg/kg); • (d) nerve crush/SDF-1α (30 μg/kg); • (e) nerve crush/SDF-1α (100 μg/kg); • (f) nerve crush/IL-6 (30 μg/kg).
The animals were anaesthetized by inhalation of 3% Isoflurane (Baxter). The right sciatic nerve was surgically exposed at mid thigh level and crushed at 5 mm proximal to the trifurcation of the sciatic nerve. The nerve was crushed twice for 30s with a haemostatic forceps (width 1.5 mm; Koenig; Strasbourg; France) with a 90-degree rotation between each crush.
Electromyographical (EMG) testing was performed once before the surgery day and each week during 3 weeks following the operation.
The day of nerve crush surgery was considered as dpl 0 (dpl=day post lesion). No test was performed during the 4 days following the crush.
From the day of nerve injury to the end of the study, SDF-1α, IL-6 or Vehicle were administered daily by subcutaneous injections (s.c.) route, 5 days per week.
Electrophysiological recordings were performed using a Neuromatic 2000M electromyograph (EMG) (Dantec, Les Ulis, France). Mice were anaesthetized by inhalation of 3% Isofluran® (Baxter). The normal body temperature was maintained using a heated operating table (Minerve, Esternay, France).
Compound muscle action potential (CMAP) was measured in the gastrocnemius muscle after a single 0.2 ms stimulation of the sciatic nerve at a supramaximal intensity (12.8 mA). The amplitude (mV) and the latency (ms) of the action potential were measured on the operated leg. The measures was also registered on the contralateral (uncrushed) leg of Vehicle treated animals (Baseline). The amplitude is indicative of the number of active motor units, while the distal latency indirectly reflects motor nerve conduction and neuromuscular transmission velocities, which depends in part on the degree of myelination.
Global analysis of the data was performed using one-way ANOVA. Dunnett's test was used further, and data were compared to the “vehicle” control. The level of significance was set at a: p<0.001; b or **: p<0.01; c or *: p<0.05; d: p<0.1. The results were expressed as mean ±standard error of the mean (s.e.m.).
The sciatic nerve crush model described in Example 4 above was carried out to test SDF-1α variant as defined in SEQ ID NO: 4 and the mice were divided into the following 2 groups (n=6):
The SDF-1α variant used in this example and encoded by SEQ ID NO: 4 was expressed with an additional N terminal Methionine. The CMAP duration (time needed for a depolarization and a repolarization session) was also recorded.
The sciatic nerve crush model described in Example 4 above was carried out to test Met-SDF-1α (as defined in SEQ ID NO: 7) and the mice were divided into the following 2 groups (n=6):
(b) nerve crush/Met-SDF-1α variant at 100, 30, and 10 μg/kg s.c.

[1] = test system: primary mixed cortical cultures stimulated with LPS; assay: Cytokine release (TNF-α, IL-6) from LPS stimulated primary mixed cortical cultures; type: cell-based, mouse; conditions: for levels of IL-6 secretion / levels of TNF-α secretion: pre-incubation 3 h (SDF proteins 0.001, 0.1, 10 ng/ml; IL-10 10 ng/ml; dexamethasone 25 pM), then LPS 5 ng/ml 48 h, ELISA, compared to untreated cells
Method: Culturing of primary cells was performed as described (Lubetzki et al., 1993) using brain tissue from embryos isolated from NMRI mice at 16 days post-coitum. Cerebral hemispheres were dissected from embryo brains, dissociated via trypsin digestion and the single cell suspension was seeded at 5×10^4 cells in 50 μl myelination medium per well onto BioCoat® poly-L-lysine coated 96-well plates (356516, Becton Dickinson). The myelination medium consisted of Bottenstein-Sato medium (Bottenstein and Sato, 1979; Sadir et al., 2001), supplemented with 1% FCS, 1% penicillin-streptomycin solution (Seromed) and recombinant platelet-derived growth factor AA (PDGF-AA, R&D Systems) at 10 ng/mL.
For testing the effects of SDF-1α and SDF-1α variant (as defined in SEQ ID NO: 4) on LPS stimulated cultures, cells were allowed to grow for two weeks. At day 14 cells were pre-incubated with increasing concentrations (0.001, 0.1 and 10 ng/ml) of the corresponding proteins into 25 μl of medium for three hours at 37° C. and 10% CO2. LPS was then supplemented to the cells at the concentration of 5 ng/ml into 25 μl of medium to obtain a final volume of 100 μl and incubated for 48 hours. Supernatants were collected at day 16 and the levels of TNF-α and IL-6 (the major cytokines released by activated microglia) were measured via specific ELISAs purchased from R&D systems (DuoSet mouse TNF-α ELISA DY410, mouse IL-6 ELISA DY406).
Global analysis of the data was performed using one-way ANOVA. Dunnett's test was used further, and data were compared to the “untreated cells”. The level of significance was set at a: p<0.001; b or **: p<0.01; c or *: p<0.05; d: p<0.1. The results were expressed as mean ±standard error of the mean (s.e.m.).

[2] = test system: leukocytes recruited in the peritoneal cavity; assay: In vivo model of peritoneal cell recruitment; design: species or system mouse; conditions: 4 μg i.p. in Balb/C mice, 4 hours post injection
Method: 8-12 week old, female Balb/C mice (Janvier, France) were injected intra peritoneally (i.p.) with 200 μl NaCl (0.9%, LPS free) or chemokine 4 μg (WT SDF-1α or SDF-1α variant according to SEQ ID NO:4 diluted in 200 μl NaCl (0.9%, LPS free). […] of WT or mutant SDF-1α, mice were sacrificed by CO2 asphyxiation, the peritoneal cavity was washed with 3×5 ml ice cold PBS and the total lavage was pooled for individual mice. Total cells collected were counted by haemocytometer (Neubauer, Germany).

Molecule	CMAP latency vs vehicle treated mice (sciatic nerve crush mice; 100, 30, and 10 μg/kg s.c., day 7 and day 14 after crush)	CMAP duration vs vehicle treated mice (sciatic nerve crush mice; 30 μg/kg s.c., 7 dpl and 22 dpl)	CMAP amplitude (sciatic nerve crush mice; 30 μg/kg s.c., 22 dpl)	CMAP latency vs vehicle treated mice (sciatic nerve crush mice; 30 μg/kg s.c., 22 dpl)	CMAP latency vs vehicle treated mice (sciatic nerve crush mice; 30 μg/kg s.c., especially at 7 dpl)	levels of IL-6 secretion [1]	levels of TNF-α secretion [1]	best concentration for decrease of TNF-α and IL-6 secretion ([1]; tested 0.001, 0.1 and 10 ng/ml, LPS 5 ng/ml 48 h) [ng/mL]	leukocyte recruitment in the peritoneal cavity [2]
Met-SDF-1α: Human mature isoform SDF-1α having an additional N-terminal Methionine, SEQ ID NO: 7	significantly reduced	–	–	–	–	–	–	–	–
B1	–	reduced	significant increase	positive effect	significantly reduced	significantly decreased	significantly decreased	10	did not recruit leukocytes
B2	–	–	–	–	–	down regulated	down regulated	–	–
